Test results published in patent US20120148586A1 (published 2012).

Molecular target: GLP-1R (receptor addressed by the glucose-stimulated insulin secretion assay of Table 1)
Assay: cell-based or functional assay

Row | EC50 (µM), glucose-stimulated insulin secretion (GSIS) assay | Binder
1 | 0.041 µM | HXEGTFTSDVSSYLEGQAAKEFIAWLVKGR (Aib at position 2; linking residue K26 (so in the source)) [peptide of GAC-4 (not tethered to an antibody)]
2 | 0.094 µM | HXEGTFTSDVSSYLEGQAAKEFIAWLVKXR (Aib at position 2 and Aib before the C-terminal R; linking residue K26 (so in the source)) [peptide of GAC-9 (not tethered to an antibody)]
